# Source: US20230340152A1 (published 2023)
# B1: MEDI9447 (antibody, human IgG1, lambda, V domains shown)
# VH: EVQLLESGGGLVQPGGSLRLSCAASGFTFSSYAYSWVRQAPGKGLEWVSAISGSGGRTYYADSVKGRFTISRDNSKNTLYLQMNSLRAEDTAVYYCARLGYGRVDEWGRGTLVTVSS
# VL: QSVLTQPPSASGTPGQRVTISCSGSLSNIGRNPVNWYQQLPGTAPKLLIYLDNLRLSGVPDRFSGSKSGTSASLAISGLQSEDEADYYCATWDDSHPGWTFGGGTKLTVLG
# notes: Human IgG1-TM (L234F, L235E, P331S), lambda light chain; also called clone 10.3 antibody; 73combo3
# Experiments:
# Assay in all cases: SPR (ProteOn), CD73 variant immobilized on HTG chip
# [1] = target: T1, KO_Linker CD73 chimera (human; chicken, UniProt P21589 27-553)
# T1 construct: also called KO_292-310; linker region-swapped CD73
# T1 chain: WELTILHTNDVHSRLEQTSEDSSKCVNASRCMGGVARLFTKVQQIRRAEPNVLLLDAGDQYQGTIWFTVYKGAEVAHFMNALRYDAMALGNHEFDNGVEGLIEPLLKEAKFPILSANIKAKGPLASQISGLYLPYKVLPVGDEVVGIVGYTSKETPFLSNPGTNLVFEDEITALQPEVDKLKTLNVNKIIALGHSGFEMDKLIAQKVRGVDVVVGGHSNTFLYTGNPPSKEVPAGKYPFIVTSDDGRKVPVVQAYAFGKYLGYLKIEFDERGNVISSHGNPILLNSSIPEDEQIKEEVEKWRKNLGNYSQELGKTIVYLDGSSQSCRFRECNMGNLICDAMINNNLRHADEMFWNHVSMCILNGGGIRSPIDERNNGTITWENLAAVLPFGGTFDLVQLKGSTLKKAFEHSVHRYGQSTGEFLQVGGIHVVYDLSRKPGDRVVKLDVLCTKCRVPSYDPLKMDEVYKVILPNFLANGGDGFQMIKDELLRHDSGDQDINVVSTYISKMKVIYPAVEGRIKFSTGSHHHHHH
# Experimental: (§1) Binding of MEDI9447 to wild-type and mutant CD73 proteins was measured by surface plasmon resonance (SPR) using a ProteOn instrument (BioRad). CD73 crude cell supernatant protein samples were diluted to 3 µg/ml in PBS, 0.005% Tween-20, pH 7.4 (BioRad) and immobilized to ~400 RU on a HTG tris-NTA sensor chip (BioRad) pre-activated with 10 mM NiSO₄, 10 mM MES, pH 6.0 (BioRad). An equivalently diluted crude cell supernatant sample from non-transfected cells was included as a reference channel control. Sensorgrams were recorded by flowing two-fold dilutions of MEDI9447 prepared in PBS, 0.005% Tween-20, pH 7.4, ranging from 5 nM to 0.31 nM. […] Antibody binding was measured at a flow rate of 100 µL/min with a 3 min association phase and 20 min dissociation phase. The sensor chip surface was regenerated between each run by an 800 s injection of 300 mM EDTA, pH 8.5 (BioRad) at a flow rate of 30 µL/min. Binding kinetics were analyzed using the ProteOn data analysis software. Double referencing was performed and, unless noted otherwise, a 1:1 Langmuir binding model was utilized to fit the data. Some CD73 variants containing mutations within the amino acid region 171-188 fit poorly to a 1:1 model (i.e., Chi² values >10% of Rmax). Where noted, these variants were fit with a heterogenous antigen (2:1) model. […] Due to the assay format (antigen immobilized) and the dimeric state of CD73, KD values may be exaggerated due to avidity effects. However, it is not anticipated that this impacts ranking of MEDI9447 binding to the different CD73 variants.
# [2] = target: T2, HDX_E1 CD73 chimera (human; chicken, UniProt P21589 27-553)
# T2 chain: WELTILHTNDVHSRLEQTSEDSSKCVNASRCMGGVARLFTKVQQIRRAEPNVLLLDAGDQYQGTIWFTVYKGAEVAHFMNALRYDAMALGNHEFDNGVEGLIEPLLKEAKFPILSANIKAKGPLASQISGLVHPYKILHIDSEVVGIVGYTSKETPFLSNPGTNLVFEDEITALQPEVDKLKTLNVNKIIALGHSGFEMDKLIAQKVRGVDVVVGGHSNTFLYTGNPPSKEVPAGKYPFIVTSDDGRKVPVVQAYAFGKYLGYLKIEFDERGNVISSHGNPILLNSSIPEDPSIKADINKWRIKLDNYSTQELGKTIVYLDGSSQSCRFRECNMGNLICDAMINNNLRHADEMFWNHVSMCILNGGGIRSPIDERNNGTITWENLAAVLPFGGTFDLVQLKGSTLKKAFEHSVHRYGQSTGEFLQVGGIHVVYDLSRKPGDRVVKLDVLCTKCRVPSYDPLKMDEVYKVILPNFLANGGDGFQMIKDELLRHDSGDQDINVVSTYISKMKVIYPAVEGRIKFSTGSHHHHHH
# Experimental: as §1
# [3] = target: T3, Human CD73 V144K+K180A, His-tagged (human, UniProt P21589 27-549)
# T3 chain: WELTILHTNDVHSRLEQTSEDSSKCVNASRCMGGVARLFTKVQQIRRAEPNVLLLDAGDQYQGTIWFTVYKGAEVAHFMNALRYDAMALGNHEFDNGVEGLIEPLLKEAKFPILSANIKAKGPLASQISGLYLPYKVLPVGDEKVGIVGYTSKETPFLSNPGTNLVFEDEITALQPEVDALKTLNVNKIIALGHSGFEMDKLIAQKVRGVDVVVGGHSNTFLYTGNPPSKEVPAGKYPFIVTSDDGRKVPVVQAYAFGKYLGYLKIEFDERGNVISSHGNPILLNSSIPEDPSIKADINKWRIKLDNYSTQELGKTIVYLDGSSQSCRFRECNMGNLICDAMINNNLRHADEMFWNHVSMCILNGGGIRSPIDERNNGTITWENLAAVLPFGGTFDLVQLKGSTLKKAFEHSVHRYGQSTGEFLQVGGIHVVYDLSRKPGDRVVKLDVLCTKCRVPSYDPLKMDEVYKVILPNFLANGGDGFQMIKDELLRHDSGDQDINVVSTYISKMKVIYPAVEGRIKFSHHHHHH
# Experimental: as §1
binder,measurement,setting,value
B1,Kd,[1],4.14 pM
same,koff,[1],2.31e-05 s⁻¹
same,kon,[1],5.7e+06 M⁻¹ s⁻¹
same,Kd,[2],9.9 pM
same,koff,[2],2.12e-05 s⁻¹
same,kon,[2],2.15e+06 M⁻¹ s⁻¹
same,koff,[3],0.00425 s⁻¹
same,kon,[3],1.58e+06 M⁻¹ s⁻¹
